Laboratory results: patent US20240262894A1 (INSTITUTE OF MICROBIOLOGY CHINESE ACADEMY OF SCIENCES, published 2024)

Columns and labels:
[1] = biological target: F protein of RSV A-type A2 strain (on virus) (respiratory syncytial virus A-type A2 …, UniProt P03420 26-574); assay: cell-based or functional assay
[2] = biological target: F protein of RSV A-type Long strain (on virus) (respiratory syncytial virus A-type Long …, UniProt P12568 26-574); assay: cell-based or functional assay
[3] = biological target: T1, F protein of RSV A-type A2 strain (on virus) (respiratory syncytial virus A-type A2 …, UniProt P03420 26-574); assay: cell-based or functional assay; remark: listed apart in the source
[4] = biological target: T1, F protein of RSV A-type A2 strain (on …); assay: cell-based or functional assay; remark: listed apart in the source
[5] = biological target: F protein of RSV A-type Long strain (on virus) (respiratory syncytial virus A-type Long …, UniProt P12568 26-574); assay: cell-based or functional assay; remark: listed apart in the source
[6] = biological target: T2, F protein of RSV B-type clinical isolates (on virus) (respiratory syncytial virus B-type …); assay: cell-based or functional assay
[7] = biological target: T2, F protein of RSV B-type clinical …; assay: cell-based or functional assay; remark: listed apart in the source
[8] = biological target: T3, post-fusion F protein (FΔFP) of RSV A2 strain (respiratory syncytial virus A2 strain, UniProt P03420 26-513); assay: SPR (Biacore), F protein immobilised on CM5 chip, Fab as analyte
T3 construct: also called RSV-FΔFP; RSV post-fusion F protein

[9] = biological target: T4, pre-fusion F protein DS-Cav1 of RSV A2 strain (respiratory syncytial virus A2 strain); assay: as above
T4 construct: Purified from 293T cells; also called RSV-F (DS-Cav1); RSV pre-fusion F protein

Binder | IC50 (ng/mL), neutralization of RSV A-type A2 strain on Hep2 cells, flow cytometry [3] | neutralization activity against RSV B-type clinical isolates relative to palivizumab [6] | IC50 (ng/mL), neutralization of RSV B-type clinical isolates on Hep2 cells, flow cytometry [7] | Kd [8] | Kd [9] | other results
Palivizumab (antibody, V domains shown) VH: QVTLRESGPALVKPTQTLTLTCTFSGFSLSTSGMSVGWIRQPPGKALEWLADIWWDDKKDYNPSLKSRLTISKDTSKNQVVLKVTNMDPADTATYYCARSMITNWYFDVWGAGTTVTVSS VL: DIQMTQSPSTLSASVGDRVTITCKCQLSVGYMHWYQQKPGKAPKLLIYDTSKLASGVPSRFSGSGSGTEFTLTISSLQPDDFATYYCFQGSGYPFTFGGGTKLEIK |  |  |  |  |  | IC50 (ng/mL), neutralization of RSV A-type A2 strain on Hep2 cells, flow cytometry [1]: 751 ng/mL; IC50 (ng/mL), neutralization of RSV A-type Long strain on Hep2 cells, flow cytometry [2]: 897 ng/mL
RV11 antibody (human IgG1) (antibody, V domains shown) VH: QVQLVQSGGGVVQPGRSLRLSCAASGFSFTNYGMHWVRQAPGKGLEWVAVISYDDGSDKYYADSVKGRFTISRDNSKNTLYLQMNSLRAEDTAVYYCVRDPTGDYGDFPEQDGYYYYYGMDVWGQGTTVTVSS VL: QAVLTQPPSASGTPGQRVTISCSGSSLNIGSNYVYWYQQLPGTAPKFLIYKNNQRPSGVPDRFSGSKSGTSASLAISGLRSEDEADYYCAAWDDSLSGVVFGGGTKLTVLG | 42.3 ng/mL | ~45 times | 31.4 ng/mL |  |  | neutralization activity against RSV A2 relative to palivizumab [4]: ~18 times; neutralization activity against RSV Long relative to palivizumab [5]: ~16 times
RV8 antibody (human IgG1) (antibody, V domains shown) VH: QVQLVQSGGGVVQPGRSLRLSCAASGFTFSSYAMHWVRQAPGKGLEWMAVISYDGSNTYYADSVKGRFTISRDNSKNTLYLQMNSLRAEDTAMFYCARDYCSRGTCYHDYWGQGTLVTVSS VL: DIVLTQSPSSLSASVGDRVTITCRASQDIRNDLSWYQQKPGKAPKLLIYAASSLQSGVPSRFSGSGSGTDFTLTISSLQPEDFATYSCLQDYNYPQTFGQGTKVEIKR | 540 ng/mL | 7.7 times | 183 ng/mL |  |  | 
RV8 Fab (Fab, V domains shown, Fab made by enzyme digestion of the human IgG1/kappa antibody; also called Fab of RV8 antibody; not shown: limits not st) VH: QVQLVQSGGGVVQPGRSLRLSCAASGFTFSSYAMHWVRQAPGKGLEWMAVISYDGSNTYYADSVKGRFTISRDNSKNTLYLQMNSLRAEDTAMFYCARDYCSRGTCYHDYWGQGTLVTVSS VL: DIVLTQSPSSLSASVGDRVTITCRASQDIRNDLSWYQQKPGKAPKLLIYAASSLQSGVPSRFSGSGSGTDFTLTISSLQPEDFATYSCLQDYNYPQTFGQGTKVEIKR |  |  |  | 17.5 nM | 25.6 nM | 
RV10 Fab (Fab, V domains shown, Fab made by enzyme digestion of the human IgG1/lambda antibody; also called Fab of RV10 antibody; not shown: limits not st) VH: QVQLVQSGAEVKKPGASVKVSCKASGYTFTTYDFHWVRQAPGQGLEWIGWLNPDNGNTKHSQKFQGRVTFTRDTSASTAFMELSSLRSEDTAVYYCTRAPWWWYFDYWGQGTLVTVSS VL: NFMLTQPHSVSESPGKTVTISCTRSSGSIASNYVQWCQQRPGSSPTTVIYEDNQRPSGVPDRFSGSIDSSSNSASLTISGLRTEDEADYYCQSYDTSNAVFGGGTKLTVLG |  |  |  | 7.1 nM | 10.1 nM | 
RV7 Fab (Fab, V domains shown, Fab made by enzyme digestion (immobilised enzyme beads, Thermo 20341) of the human IgG1/kappa antibody; also called Fab of RV7 antibody; not shown: limits not st) VH: QVQLQESGPGLVKPSETLSLTCTVSGGSISSYYLSWIRQPPGKGLEWIGYIYHTGSTNYNPSLKSRVTISVHSSKNQFSLKLTSVTAADTAVYYCARHMRIVTTIDYWGQGTLVTVSS VL: DIVMTQSPSSLSASVGDRVTLTCRASQGISSYLAWYQQKPGKVPKLLIYAASTLQSGVPSRFSGSGSGTDFTLTISSLQPEDVATYYCQKYNSAPWTFGQGTKVEIKR |  |  |  |  |  | binding result [8]: no binding; binding result [9]: no binding
